Data taken from paper PMC6822988, “Native adiponectin in serum binds to mammalian cells expressing T-cadherin, but not AdipoRs or calreticulin” (eLife, 2019).

Tests used:
[1] = target: adiponectin (HMW) (Homo sapiens) (UniProt Q15848); settings: cited from earlier work
[2] = target: the molecule itself; assay: native gel or EMSA; native-PAGE of purified or recombinant adiponectin, 50 ng adiponectin, Western blot
[3] = target: the molecule itself; assay: native gel or EMSA; native-PAGE of mouse serum, 50 ng adiponectin, Western blot

adiponectin (HMW) (Homo sapiens), sequence (Q15848 19-244): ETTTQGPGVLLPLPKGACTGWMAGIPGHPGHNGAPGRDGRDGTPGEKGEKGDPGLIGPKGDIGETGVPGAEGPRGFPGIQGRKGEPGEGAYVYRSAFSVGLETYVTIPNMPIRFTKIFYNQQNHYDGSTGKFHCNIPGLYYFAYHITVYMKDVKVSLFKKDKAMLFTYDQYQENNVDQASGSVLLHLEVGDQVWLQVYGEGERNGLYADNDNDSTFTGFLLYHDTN

## T-cadherin (from UniProt P55290)
[1]
  Kd: 1 nM

B1: Full-length mammalian recombinant mouse adiponectin (ligand, UniProt Q60994 18-247, looked up)
chain: EDDVTTTEELAPALVPPPKGTCAGWMAGIPGHPGHNGTPGRDGRDGTPGEKGEKGDAGLLGPKGETGDVGMTGAEGPRGFPGTPGRKGEPGEAAYVYRSAFSVGLETRVTVPNVPIRFTKIFYNQQNHYDGSTGKFYCNIPGLYYFSYHITVYMKDVKVSLFKKDKAVLFTYDQYQEKNVDQASGSVLLHLEVGDQVWLQVYGDGDHNGLYADNVNDSTFTGFLLYHDTN
notes: adiponectin, mouse, full-length recombinant, produced in HEK293 cells; contains less 6-mer and HMW multimer than serum adiponectin; the secreted product probably lacks the signal peptide; also called recombinant adiponectin; full-length recombinant adiponectin produced in HEK293 cells; source: bought: BioVendor (RD272023100), produced in HEK293 cells
[2]
  binding result: binds

B2: native mouse adiponectin in mouse serum (ligand, UniProt Q60994 18-247, looked up)
chain: B1 chain
notes: adiponectin, mouse, circulating protein of serum; multimers (6-mer and HMW multimer) seen by native-PAGE; Used both as whole serum and as adiponectin purified from serum; Mixture of multimers; also called mouse serum adiponectin; native adiponectin; source: endogenous, serum of C57BL6J mice, used as serum without processing; also purified from mouse serum (Fukuda et al., 2017)
[3]
  binding result: binds
